These binders were tested against human Fc (human) (assay: ELISA, negative control).

| Binder | optical density [OD] |
| --- | --- |
| 367_D12 (antibody, V domains shown) VH: EVQLLESGGGLVQPGGSLRLSCAASGFTFSSYSMNWVRQAPGKGLEWVSSINYNGGYTGYADSVKGRFTISRDNSKNTLYLQMNSLRAEDTAVYYCARGANWHDTHLDYWGQGTLVTVSS VL: DIQMTQSPSSLSASVGDRVTITCRASQSIVSYVNWYQQKPGKAPKLVIYAATSRASGVPSRFSGSGSGTDFTLTISSLQPEDFATYYCQQSYESPLTFGGGTKVEIK | 0.309 |
| 367_E05 (antibody, V domains shown) VH: EVQLLESGGGLVQPGGSLRLSCAASGFTFSSYGMNWVRQAPGKGLEWVAGINYNGGYTSYADSVKGRFTISRDNSKNTLYLQMNSLRAEDTAVYYCARGANWHDTHLDYWGQGTLVTVSS VL: DIQMTQSPSSLSASVGDRVTITCRASQSILSYLNWYQQKPGKAPKLLIYAATSRHSGVPSRFSGSGSGTDFTLTISSLQPEDFATYYCQQSYDSPLTFGGGTKVEIK | 0.333 |
| 366_G06 (antibody, V domains shown) VH: EVQLLESGGGLVQPGGSLRLSCAASGFTFSSYGMHWVRQAPGKGLEWVASINYNGGYTGYADSVKGRFTISRDNSKNTLYLQMNSLRAEDTAVYYCARAANWHDTHLDYWGQGTLVTVSS VL: DIQMTQSPSSLSASVGDRVTITCRASQSIVSYVNWYQQKPGKAPKLVIYAATSRASGVPSRFSGSGSGTDFTLTISSLQPEDFATYYCQQSYDNPLTFGGGTKVEIK | 0.341 |
| 368_A04 (antibody, V domains shown) VH: EVQLLESGGGLVQPGGSLRLSCAASGFTFDDYSMNWVRQAPGKGLEWVAGINYNGGYKSYADSVKGRFTISRDNSKNTLYLQMNSLRAEDTAVYYCARGANWHDTHLDYWGQGTLVTVSS VL: DIQMTQSPSSLSASVGDRVTITCRASQSILTYLNWYQQKPGKAPKLVIYAVTSRASGVPSRFSGSGSGTDFTLTISSLQPEDFATYYCQQSYELPLTFGGGTKVEIK | 0.283 |

Other lines, results leading:

| optical density [OD] | Binder |
| --- | --- |
| 0.356 | 367_G01 (antibody, V domains shown) VH: EVQLLESGGGLVQPGGSLRLSCAASGFTFDSYGMNWVRQAPGKGLEWVASINYNSGYTGYADSVKGRFTISRDNSKNTLYLQMNSLRAEDTAVYYCARGANWHDTHLDYWGQGTLVTVSS VL: DIQMTQSPSSLSASVGDRVTITCRASQSISSYLNWYQQKPGKAPKLVIYAATSRASGVPSRFSGSGSGTDFTLTISSLQPEDFATYYCQQSYDLPLTFGGGTKVEIK |
| 0.377 | 367_H03 (antibody, V domains shown) VH: EVQLLESGGGLVQPGGSLRLSCAASGFTFSSYGMNWVRQAPGKGLEWVAGINYNSGYTSYADSVKGRFTISRDNSKNTLYLQMNSLRAEDTAVYYCARGANWHDTHLDYWGQGTLVTVSS VL: DIQMTQSPSSLSASVGDRVTITCRASQSIITYVNWYQQKPGKAPKLLIYAATSLASGVPSRFSGSGSGTDFTLTISSLQPEDFATYYCQQSYDLPLTFGGGTKVEIK |
| 0.287 | 367_G04 (antibody, V domains shown) VH: EVQLLESGGGLVQPGGSLRLSCAASGFTFSSYSMNWVRQAPGKGLEWVAGINYNSGYTSYADSVKGRFTISRDNSKNTLYLQMNSLRAEDTAVYYCARGANWHDTHLDYWGQGTLVTVSS VL: DIQMTQSPSSLSASVGDRVTITCRASQSILSYLNWYQQKPGKAPKLVIYAATSRASGVPSRFSGSGSGTDFTLTISSLQPEDFATYYCQQSYDSPLTFGGGTKVEIK |
| 0.348 | 368_A03 (antibody, V domains shown) VH: EVQLLESGGGLVQPGGSLRLSCAASGFTFSSYSMNWVRQAPGKGLEWVSGINYNGGYTGYADSVKGRFTISRDNSKNTLYLQMNSLRAEDTAVYYCARGANWHDTHLDYWGQGTLVTVSS VL: DIQMTQSPSSLSASVGDRVTITCRASQSIISYLNWYQQKPGKAPKLLIYAVTSRASGVPSRFSGSGSGTDFTLTISSLQPEDFATYYCQQSYENPLTFGGGTKVEIK |

From patent publication US20210380703A1
